Experiments:
[1] = target: cyno CLDN6 (cyno); assay: flow cytometry, CHOK1/Cyno CLDN6-GFP cells
[2] = target: human claudin 6 (CLDN6) (human) (UniProt P56747); assay: flow cytometry, CHOK1/human CLDN6-GFP cells
[3] = target: human claudin 9 (CLDN9) (human) (UniProt O95484); assay: flow cytometry, CHOK1/human CLDN9-GFP cells
[4] = target: mouse CLDN6 (mouse) (UniProt Q9Z262); assay: flow cytometry, CHOK1/mouse CLDN6-GFP cells
[5] = target: human claudin 6 (CLDN6) (human) (UniProt P56747); assay: flow cytometry, PA-1 cells (endogenous CLDN6)

Chain of human claudin 6 (CLDN6) (human) (P56747 whole entry): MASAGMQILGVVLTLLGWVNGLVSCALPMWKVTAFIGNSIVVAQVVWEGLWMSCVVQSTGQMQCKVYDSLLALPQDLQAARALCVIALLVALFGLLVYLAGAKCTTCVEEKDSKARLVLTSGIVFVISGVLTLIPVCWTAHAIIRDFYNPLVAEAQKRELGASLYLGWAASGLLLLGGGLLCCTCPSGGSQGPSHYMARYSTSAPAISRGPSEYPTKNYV
Chain of mouse CLDN6 (mouse) (Q9Z262 whole entry): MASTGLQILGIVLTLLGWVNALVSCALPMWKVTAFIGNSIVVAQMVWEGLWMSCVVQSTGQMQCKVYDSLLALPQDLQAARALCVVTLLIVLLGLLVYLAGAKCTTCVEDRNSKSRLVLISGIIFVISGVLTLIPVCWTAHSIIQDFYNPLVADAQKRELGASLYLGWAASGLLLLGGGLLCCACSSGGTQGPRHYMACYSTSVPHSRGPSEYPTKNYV
Chain of human claudin 9 (CLDN9) (human) (O95484 whole entry): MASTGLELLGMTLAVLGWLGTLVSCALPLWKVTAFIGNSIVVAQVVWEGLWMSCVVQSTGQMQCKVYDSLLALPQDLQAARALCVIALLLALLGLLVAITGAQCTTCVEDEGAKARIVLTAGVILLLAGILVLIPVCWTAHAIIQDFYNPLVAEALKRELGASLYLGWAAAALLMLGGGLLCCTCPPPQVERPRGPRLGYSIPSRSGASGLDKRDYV

Emax (MFI) [1]: 225 MFI | Emax (MFI) [2]: 31.1 MFI | Emax (MFI) [3]: 26.9 MFI | Emax (MFI) [4]: 41.8 MFI | Emax (MFI) [5]: 34 MFI
Substance: Human IgG1 isotype Ctrl. (antibody)

— US20240301062A1
